Measurements taken from the supplement of paper PMC9233669.
This sample holds only a part of the variants without activity.

Key:
[1] = tested on: biotinyl-Ile-oxazolone; assay: self-aminoacylation, catalytic enhancement (BIO) (fold over background); higher = more active; k-Seq, kA / k0A0; sequences stand for … in GGGAAUGGAUCCACAUCUACGAAUUC…UUCACUGCAGACUUGACGAAGCUG
How it was run: (§1)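 The uncatalyzed rate is the low-activity peak of a bimodal Gaussian fit, and catalytic enhancement is median kA divided by it. The kA values came from pseudo-first-order fits, with 1000 bootstraps, of per-sequence fraction reacted measured by streptavidin capture, triplicate qPCR and Illumina sequencing. Mutagenized RNA pools with a 21-nt variable region (0.43 μM) were reacted with each biotinyl-aminoacyl-oxazolone at 2–1250 μM in 50 μL HEPES/NaCl/KCl/MgCl2/CaCl2 buffer with 5% acetonitrile, pH 6.9–7.0, for 90 minutes at room temperature.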

[2] = tested on: biotinyl-Trp-oxazolone; assay: self-aminoacylation, catalytic enhancement (BWO) (fold over background); higher = more active; k-Seq, kA / k0A0; sequences stand for … in GGGAAUGGAUCCACAUCUACGAAUUC…UUCACUGCAGACUUGACGAAGCUG
How it was run: as §1

[3] = tested on: biotinyl-Val-oxazolone; assay: self-aminoacylation, catalytic enhancement (BVO) (fold over background); higher = more active; k-Seq, kA / k0A0; sequences stand for … in GGGAAUGGAUCCACAUCUACGAAUUC…UUCACUGCAGACUUGACGAAGCUG
How it was run: as §1

[4] = tested on: biotinyl-Phe-oxazolone; assay: self-aminoacylation, catalytic enhancement (BFO) (fold over background); higher = more active; k-Seq, kA / k0A0; sequences stand for … in GGGAAUGGAUCCACAUCUACGAAUUC…UUCACUGCAGACUUGACGAAGCUG
How it was run: as §1

[5] = tested on: biotinyl-Met-oxazolone; assay: self-aminoacylation, catalytic enhancement (BMO) (fold over background); higher = more active; k-Seq, kA / k0A0; sequences stand for … in GGGAAUGGAUCCACAUCUACGAAUUC…UUCACUGCAGACUUGACGAAGCUG
How it was run: as §1

[6] = tested on: biotinyl-Leu-oxazolone; assay: self-aminoacylation, catalytic enhancement (BLO) (fold over background); higher = more active; k-Seq, kA / k0A0; sequences stand for … in GGGAAUGGAUCCACAUCUACGAAUUC…UUCACUGCAGACUUGACGAAGCUG
How it was run: as §1

Sequence	self-aminoacylation [1]	self-aminoacylation [2]	self-aminoacylation [3]	self-aminoacylation [4]	self-aminoacylation [5]	self-aminoacylation [6]
CGACACUUCAAGCCAUCGGUC [Fam1B.1 aminoacylation ribozyme variant]	1.3	1.9	1.59	0.589	1.17	1.17
CGACAGUUCAAGCAAUCGGUC [Fam1B.1 aminoacylation ribozyme variant]	1.48	2.43	1.53	2.42	1.19	1.45
CGACGCUUCAAGCAAUCGGUC [Fam1B.1 aminoacylation ribozyme variant]	1.2	16.7	1.35	22.7	1.07	1.58
CGACUUCAAACACUCGGUCUG [Fam1A.1 aminoacylation ribozyme variant]	1.33	2.31	1.52	2.7	1.61	1.39
CGACUUCAACCAAUCGGUCUG [Fam1A.1 aminoacylation ribozyme variant]	1.56	31.6	1.42	64.2	1.35	2.26
CGCCUUCAAACAAUCGGUCUG [Fam1A.1 aminoacylation ribozyme variant]	1.59	55.5	1.8	146	1.94	3.13
CGGCUUCAAACAAUCGGUCUG [Fam1A.1 aminoacylation ribozyme variant]	1.41	45.1	1.49	106	1.62	2.46
CUAACCCUGGUCAUCGAGUGA [Fam2.1 aminoacylation ribozyme variant]	4.07	9.47	4.44	11.8	8.98	8.32
CUAACUCAAACAAUCGGUCUG [Fam1A.1 aminoacylation ribozyme variant]	0.761	1.24	0.742	3.32	0.648	0.716
CUAAUUCAAAAAAUCGGUCUG [Fam1A.1 aminoacylation ribozyme variant]	0.751	1.18	0.668	1.9	0.636	0.727
CUAAUUCAAACAACCGGUCUG [Fam1A.1 aminoacylation ribozyme variant]	0.947	0.69	0.754	0.916	0.958	0.724
CUAAUUCAAACAAGCGGUCUG [Fam1A.1 aminoacylation ribozyme variant]	0.874	0.632	0.972	0.798	1.1	0.847
CUAAUUCAAACAAUAGGUCUG [Fam1A.1 aminoacylation ribozyme variant]	0.773	0.666	0.77	1.11	0.704	0.706
CUAAUUCAAACAAUCUGUCUG [Fam1A.1 aminoacylation ribozyme variant]	0.784	0.748	0.665	1.1	0.64	0.525
CUAAUUCAAACAUUCGGUCUG [Fam1A.1 aminoacylation ribozyme variant]	1.05	1.02	0.979	0.983	1.03	1.02
CUAAUUCAAACGAUCGGUCUG [Fam1A.1 aminoacylation ribozyme variant]	0.689	0.656	0.648	0.8	0.696	0.72
CUAAUUUAAACAAUCGGUCUG [Fam1A.1 aminoacylation ribozyme variant]	0.9	0.6	0.872	0.662	0.866	0.791
CUACACUCCAAGCAAUCGGUC [Fam1B.1 aminoacylation ribozyme variant]	0.949	1.22	0.934	2.74	0.76	0.747
CUACACUUCAAGCAAGCGGUC [Fam1B.1 aminoacylation ribozyme variant]	0.719	0.541	0.637	0.583	0.62	0.772
CUACACUUCACGCAAUCGGUC [Fam1B.1 aminoacylation ribozyme variant]	0.801	0.895	0.888	0.68	0.777	0.758
CUACACUUGAAGCAAUCGGUC [Fam1B.1 aminoacylation ribozyme variant]	0.662	0.509	0.64	0.507	0.597	0.583

Sequence	self-aminoacylation [1]	self-aminoacylation [2]	self-aminoacylation [3]	self-aminoacylation [4]	self-aminoacylation [5]	self-aminoacylation [6]
CUACAUCAAACAAACGGUCUG [Fam1A.1 aminoacylation ribozyme variant]	1.07	1.09	0.901	1.01	1	0.771
CUACAUCAAACAAUCGGUCAG [Fam1A.1 aminoacylation ribozyme variant]	0.629	0.586	0.714	0.912	0.759	0.56
CUACAUCAAACAAUCGGUCGG [Fam1A.1 aminoacylation ribozyme variant]	0.773	0.994	0.981	1.36	0.954	1.16
CUACAUCAAACAAUCGGUUUG [Fam1A.1 aminoacylation ribozyme variant]	0.906	1.05	0.821	1.9	0.646	0.781
CUACAUCAAACGAUCGGUCUG [Fam1A.1 aminoacylation ribozyme variant]	0.728	0.778	0.93	0.836	0.657	0.78
CUACCUCAAACAAUCGGUCAG [Fam1A.1 aminoacylation ribozyme variant]	0.808	0.767	0.873	1.33	1.01	1.01
CUACCUCAAACAAUCGGUCCG [Fam1A.1 aminoacylation ribozyme variant]	1.04	1.2	1.18	1.05	1.15	1.9
CUACCUCAAACAAUCGGUCUC [Fam1A.1 aminoacylation ribozyme variant]	0.869	1.42	1.07	2.7	0.879	0.752
CUACCUCAAAGAAUCGGUCUG [Fam1A.1 aminoacylation ribozyme variant]	1.07	1.53	1.07	1.97	1.15	0.749
CUACCUCACACAAUCGGUCUG [Fam1A.1 aminoacylation ribozyme variant]	0.861	0.744	1.06	1.81	0.672	0.988
CUACGACAAACAAUCGGUCUG [Fam1A.1 aminoacylation ribozyme variant]	0.748	0.855	0.654	1.69	0.713	0.655
CUACGUCAAACAAUCGAUCUG [Fam1A.1 aminoacylation ribozyme variant]	0.801	1.06	0.794	0.827	0.903	0.617
CUACGUCAAACAAUCGGGCUG [Fam1A.1 aminoacylation ribozyme variant]	1.9	2.32	2.33	0.86	2.42	2.05
CUACGUCAAACAAUCGGUAUG [Fam1A.1 aminoacylation ribozyme variant]	1.12	1.53	1.12	1.02	1.39	1.11
CUACGUCAAACACUCGGUCUG [Fam1A.1 aminoacylation ribozyme variant]	1.85	2.65	2.18	10.9	1.6	1.83
CUACGUCUAACAAUCGGUCUG [Fam1A.1 aminoacylation ribozyme variant]	0.89	0.703	0.856	1.21	0.918	0.941
CUACGUUAAACAAUCGGUCUG [Fam1A.1 aminoacylation ribozyme variant]	1.19	1.05	1.19	0.927	1.16	1.17
CUACUACAAAAAAUCGGUCUG [Fam1A.1 aminoacylation ribozyme variant]	0.774	0.762	0.765	0.76	0.857	0.678
CUACUACAAACAAUCGAUCUG [Fam1A.1 aminoacylation ribozyme variant]	0.808	0.665	0.719	0.759	0.52	0.593
CUACUACAAACAAUCGGUAUG [Fam1A.1 aminoacylation ribozyme variant]	0.617	0.505	0.584	0.567	0.597	0.454
CUACUACAAACACUCGGUCUG [Fam1A.1 aminoacylation ribozyme variant]	1.08	0.703	1.03	0.434	0.856	0.902
